Reference: US7579150B1, “Mobile RNA acts as a signal to regulate plant growth and development” (Iowa State University Research Foundation, Inc., priority 2004, dated 2009)

B1: StBEL-13: BEL transcription factor from Solanum tuberosum, SEQ ID NO:6 (protein, listed as Solanum tuberosum)
chain: MVMGGGASSQQLGYAKNHTPNVAESMQLFLMNPQPRSPSPSPPNSTSSTLHMLLPNPSSTSTLQGFPNPAEGSFGQFITWGNGGASAATATHHLNAQNEIGGVNVVESQGLSLSLSSSLQHKAEELQMSGEAGGMMFFNQGGSSTSGQYRYKNLNMGGSGVSPNIHQVHVGYGSSLGVVNVLRNSKYAKAAQELLEEFCSVGRGKLKKTNNKAAANNPNTNPSGANNEASSKDVPTLSAADRIEHQRRKVKLLSMVDEVDRRYNHYCEQMQMVVNSFDLVMGFGTAVPYTALAQKAMSRHFRCLKDAIGAQLKQSCELLGEKDAGNSGLTKGETPRLKMLEQSLRQQRAFHQMGMMEQEAWRPQRGLPERSVNILRAWLFEHFLHPYPSDADKHLLARQTGLSRNQVSNWFINARVRLWKPMVEDMYQQEAKDEDGDGDEKSQSQNSGNNIIAQTPTPNSLTNTSSTNMTTTTAPTTTTALAAAETGTAATPITVTSSKRSQINATDSDPSLVAINSFSENQATFPTNIHDPDDCRRGNLSGDDGTTTHDHMGSTMIRFGTTAGDVSLTLGLRHAGNLPENTHFFG
B2: StBEL-11: BEL transcription factor from Solanum tuberosum, SEQ ID NO:4 (protein, listed as Solanum tuberosum)
chain: MTFRSSLPLDLREISTTNHQVGILSSSPLPSPGTNTNNINHTRGLGASSSFSISNGMILGSKYLKVAQDLLDEVVNVGKNIKLSDGLESGAKEKHKLDNELISLASDDVESSSQKNSGVELTTAQRQELQMKKAKLVSMLDEVDQRYRQYHHQMQMIATSFEQTTGIGSSKSYTQLALHTISKQFRCLKDAISGQIKDTSKTLGEEENIGGKIEGSKLKFVDHHLRQQRALQQLGMMQTNAWKPQRGLPERAVSVLRAWLFEHFLHPYPKDSDKIILAKQTGLTRSQVSNWFINARVRLWKPMVEEMYMEEVKKNNQEQNIEPNNNEIVGSKSSVPQEKLPISSNIIHNASPNDISTSTISTSPTGGGGSIPTQTVAGFSFIRSLNMENIDDQRNNKKARNEMQNCSTSTILSMEREIINKVVQDETIKSEKFNNTQTRECYSLMTPNYTMDDQFGTRFNNQNHEQLATTTTFHQGNGHVSLTLGLPPNSENQHNYIGLENHYNQPTHHPNISYENIDFQSGKRYATQLLQDFVS
B3: pAD5-9: StBEL-05 deletion construct, aa 1 through 315 (protein)
chain: MNPNNYMQGYTTSDTQQQQQLLFLNSSPAASNALCHANIQHAPLQQQHFVGVPLPAVSLHDQINHHGLLQRMWNNQDQSQQVIVPSSTGVSATSCGGITTDLASQLAFQRPIPTPQHRQQQQQQGGLSLSLSPQLQQQISFNNNISSSSPRTNNVTIRGTLDGSSSNMVLGSKYLKAAQELLDEVVNIVGKSIKGDDQKKDNSMNKESMPLASDVNTNSSGGGESSSRQKNEVAVELTTAQRQELQMKKAKLLAMLEEVEQRYRQYHHQMQIIVLSFEQVAGIGSAKSYTQLALHAISKQFRCLKDAIAEQVKAT
modifications: left off: large carriers
B4: StBEL-14: BEL transcription factor from Solanum tuberosum, SEQ ID NO:8 (protein, listed as Solanum tuberosum)
chain: MVNHQLQNFETNPEMYNLSSTTSSMDQMIGFPPNNNNPHHVLWKGNFPNKINGVDDDDHGPSSSKNIISEQFYQHGSHENMLTTTTTHHDDHQGSWHHDNNRTLLVDDPSMRCVFPCEGNERPSHGLSLSLCSSNPSSIGLQSFELRHQDLQQGLIHDGFLGKSTNIQQGYFHHHHQVRDSKYLGPAQELLSEFCSLGIKKNNDHSSSKVLLKQHESTASTSKKQLLQSLDLLELQKRKTKLLQMLEEVDRRYKHYCDQMKAVVSSFEAVAGNGAATVYSALASRAMSRHFRCLRDGIVAQIKATKMAMGEKDSTSTLIPGSTRGETPRLRLLDQTLRQQKAFQQMNMMETHPWRPQRGLPERSVSVLRAWLFEHFLHPYPSDVDKHILARQTGLSRSQVSNWFINARVRLWKPMVEEMYLEETKEEENVGSPDGSKALIDDMTIHQSHIDHHQADQKPNLVRIDSECISSIINHQPHEKNDQNYGVIRGGDQSFGAIELDFSTNIAYGTSGGDHHHHGGGVSLTLGLQQHGGSGGSSMGLTTFSSQPSHNQSSLFYPRDDDQVQYSSLLDSENQNLPYRNLDGGTTSS
B5: StBEL-29: BEL transcription factor from Solanum tuberosum, SEQ ID NO:12 (protein, listed as Solanum tuberosum)
chain: QGLSLSLSSSQQPGFGNFTAARELVSSPSGSASASGIQQQQQQQQSISSVPLSSKYMKAAQELLDEVVNVGKSMKSTNSTDVVVNNDVKKSKNMGDMDGQLDGVGADKDGAPTTELSTGERQEIQMKKAKLVNMLDEVEQRYRHYHHQMQSVIHWLEQAAGIGSAKTYTALALQTISKQFRCLKDAIIGQIRSASQTLGEEDSLGGKIEGSRLKFVDNQLRQQRALQQLGMIQHNAWRPQRGLPERAVSVLRAWLFEHFLHPYPKDSDKMMLAKQTGLTRSQVSNWFINARVRLWKPMVEEMYLEEIKEHEQNGLGQEKTSKLGEQNEDSTTSRSIATQDKSPGSDSQNKSFVSKQDNHLPQHNPASPMPDVQRHFHTPIGMTIRNQSAGFNLIGSPEIESINITQGSPKKPRNNEMLHSPNSIPSINMDVKPNEEQMSMKFGDDRQDRDGFSLMGGPMNFMGGFGAYPIGEIARFSTEQFSAPYSTSGTVSLTLGLPHNENLSMSATHHSFLPIPTQNIQIGSEPNHEFGSLNTPTSAHSTSSVYETFNIQNRKRFAAPLLPDFVA
B6: StBEL-30: BEL transcription factor from Solanum tuberosum, SEQ ID NO:14 (protein, listed as Solanum tuberosum)
chain: MATYFPSPNNQRDADQTFQYFRQSLPESYSEASNAPENMMVFMNYSSSGAYSDMLTGTSQQQHNCIDIPSIGATPFNTSQQEILSNLGGSQMGIQDFSSWRDSRNEMLADNVFQVAQNVQGQGLSLSLGSNIPSGIGISHVQSQNPNQGGGFNMSFGDGDNSQPKEQRNADYFPPDNPGRDLDAMKGYNSPYGTSSIARTIPSSKYLKAAQYLLDEVVSVRKAIKEQNSKKELTKDSRESDVDSKNISSDTPANGGSNPHESKNNQSELSPTEKQEVQNKLAKLLSMLDEIDRRYRQYYHQMQIVVSSFDVVAGEGAAKPYTALALQTISRHFRCLRDAICDQIRASRRSLGEQDASENSKAIGISRLRFVDHHIRQQRALQQLGMMQQHAWRPQRGLPESSVSVLRAWLFEHFLHPYPKDSDKIMLARQTGLTRSQVSNWFINARVRLWKPMVEEMYKEEAGDAKIDSNSSSDVAPRLATKDSKVEERGELHQNAASEFEQYNSGQILESKSNHEADVEMEGASNAETQSQSGMENQTGEPLPAMDNCTLFQDAFVQSNDRFSEFGSFGSGNVLPNGVSLTLGLQQGEGSNLPMSIETHVSYVPLRADDMYSTAPTTMVPETAEFNCLDSGNRQQPFWLLPSAT
B7: StBEL-22: BEL transcription factor from Solanum tuberosum, SEQ ID NO:10 (protein, listed as Solanum tuberosum)
chain: TSVYETAGLLSEMFNFQTTSTAATELLQNQLSNNYRHPNQQPHHQPPTREWFGNRQEIVVGGSLQVTFGDTKDDVNAKVLLSNRDSVTDYYQRQHNQVPSINTAESMQLFLMNPQPSSPSQSTPSTLHQGFSSPVGGHFSQFMCGGASTSSNPIGGVNVIDQGQGLSLSLSSTLQHLEASKVEDLRMNSGGEMLFFNQESQNHHNIGFGSSLGLVNVLRNSKYVKATQELLEEFCCVGKGQLFKKINKVSRNNNTSTSPIINPSGSNNNNSSSSKAIIPPNLSTAERLDHQRRKVKLLSMLDEVEKRYNHYCEQMQMVVNSFDLVMGFGAAVPYTALAQKAMSRHFKCLKDGVAAQLKKTCEALGEKDASSSSGLTKGETPRLKVLEQSLRQQRAFQQMGMMEQEAWRPQRGLPERSVNILRAWLFEHFLHPYPSDADKHLLARQTGLSRNQVANWFINARVRLWKPMVEEMYQREVNEDDVDDMQENQNSTNTQIPTPNIIITTNSNITETKSAATATIASDKKPQINVSEIDPSIVAMNTHYSSSMPTQLTNFPTIQDESDHILYRRSGAEYGTTNMASNSEIGSNMITFGTTTASDVSLTLGLRHAGNLPENTHFSG

test system: POTH1; experiment: Yeast two-hybrid interaction with POTH1 (nutritional selection, beta-galactosidase); assay type: cell-based, potato; conditions: yeast strain AH109, nutritional markers and lacZ
Sequence (as listed by the source): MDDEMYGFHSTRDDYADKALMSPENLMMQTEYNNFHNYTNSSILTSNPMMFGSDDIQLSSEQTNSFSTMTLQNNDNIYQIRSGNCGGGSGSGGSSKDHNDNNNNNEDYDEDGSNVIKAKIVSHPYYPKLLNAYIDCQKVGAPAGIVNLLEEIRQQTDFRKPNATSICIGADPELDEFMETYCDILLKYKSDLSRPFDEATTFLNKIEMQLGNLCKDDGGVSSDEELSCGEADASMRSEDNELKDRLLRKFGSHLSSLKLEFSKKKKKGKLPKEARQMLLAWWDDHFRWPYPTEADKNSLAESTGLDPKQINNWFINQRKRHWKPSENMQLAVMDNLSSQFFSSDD
From the text: The Matchmaker two-hybrid system (Clontech, CA) was used for the yeast two-hybrid screen. Yeast transformation and plasmid rescue into DH5-a E. coli cells were according to the manufacturer's instructions. Full-length POTH1 was cloned into the pBridge (Clontech, CA) vector and used as bait to screen the potato (S. tuberosum ‘Desireé’) stolon cDNA library in pAD-GAL4-2.1 (Stratagene, Calif.). Positive interactions were confirmed by cotransforming yeast strain AH109 with each purified pAD plasmid and pBridge: POTH1 and plating on -leucine/-tryptophan (transformation control) and -leucine/-tryptophan/-histidine/-adenine (selection) nutrient medium. Induction of the AH109 reporter gene, lacZ, was measured with a yeast β-galactosidase assay kit (Pierce Chemicals). β-galactosidase activity (FIG. 9B) was determined from a known density of yeast cells and calculated as 1000×OD420/time of color reaction (minutes)×volume of yeast culture (ml)×OD600.
The StBEL-05 deletion constructs were amplified by PCR, then cloned into the vector, pGAD, in-frame with the GAL4 activation domain. POTH1 deletion constructs were amplified by PCR, and cloned into pBridge (Clontech) in-frame with the GAL4 binding domain. Sequencing of selected cDNAs and constructs was performed at the Iowa State University DNA Facility. For deletion analysis, modified constructs of POTH1 were cloned into the pBridge vector for fusion with the DNA-binding domain of GAL4 (FIG. 10A). For StBEL-05, constructs were cloned into the pGAD vector for fusion with the activating domain of GAL4 (FIG. 10B). Deletion constructs were made from both the amino and carboxy termini. These mutants were then tested for interaction in the yeast two-hybrid system by cotransforming into yeast strain AH109 with the corresponding full-length partner (StBEL-05 in pGAL4 or POTH1 in pBridge). All constructs were sequenced to verify that they were in-frame. Positive interactions were verified for lacZ induction by using a β-galactosidase assay (Pierce Chemical Company). For POTH1, seven deletion constructs were tested (FIG. 10A). For the BEL TFs, a fusion construct of StBEL-05 (653 aa of StBEL-05 sequence) and nine deletion constructs were tested (FIG. 10B).

Molecule	interaction with POTH1
B1	showed selective interaction
B2	showed selective interaction
B3	interaction with POTH1
B4	showed selective interaction
B5	showed selective interaction
B6	showed selective interaction
B7	showed selective interaction
